{
  "source": "patent US11938104B1",
  "about": "“Compositions and methods for prevention and treatment of coronavirus and related disorders” (Abrexa Pharmaceuticals, Inc., priority 2021, dated 2024)",
  "test_system": "Male SD rats",
  "test": "Thromboembolic MCAO, J147+tPA expanded study, 72 h (Example 4)",
  "assay_type": "in vivo, rat",
  "experimental": "Objective: To determine whether J147 can prevent tPA-associated brain hemorrhage and extend the treatment time window of tPA in a clinically relevant thromboembolic stroke model in rats. • J147 compound: Stock solution: 60 mg/ml DMSO, in 60 ul/vial, stored at −20° C. • Working solution: 3 mg/ml in 5% DMSO, 70% PEG200 and 25% normal saline, prepared prior to injection. • One vial stock solution was warmed at 37° C. and mixed with 1140 ul sterilized solution (PEG200: saline, 2.8:1). • Recombinant human tPA (Alteplase, 2.2 mg/vial): Reconstituted with 1.1 ml water (2 mg/ml). 10 mg/kg, 10% bonus injection, 90% 30 min. via mini pump.\nMethods: Male SD rats (280-300 g) were subjected to thromboembolic middle cerebral artery occlusion (MCAO) and treated with saline at 4 hours, tPA (tissue-type plasminogen activator; 10 mg/kg, IV) at 4 hours, and combined J147 (10 mg/kg, IV) plus tPA at 4 hours after onset of ischemia. Bederson score was examined prior to the sacrifice at 72 h after stroke. Infarct volumes, brain hemorrhage, and animal mortality were measured.\nConclusion: J147 plus tPA combination treatment attenuates tPA-associated hemorrhage and alleviates brain damage after eMCAO. Consequently, the use of J147 in combination with tPA may extend the length of the therapeutic window for administration of tPA following an ischemic event and thereby increase the number of stroke patients that could benefit from use of tPA. • J147 compound: Stock solution: 60 mg/ml DMSO, in 60 ul/vial, stored at −20° C. • Working solution: 3 mg/ml in 5% DMSO, 70% PEG200 and 25% normal saline, prepared prior to injection. One vial stock solution was warmed at 37° C. and mixed with 1140 ul sterilized solution (PEG200: saline, 2.8:1). • Recombinant human tPA (Alteplase, 2.2 mg/vial): Reconstituted with 1.1 ml water (2 mg/ml). 10 mg/kg, 10% bonus injection, 90% 30 min. via mini pump.",
  "key": {"[1]": {"conditions": "tPA 10 mg/kg IV, J147 10 mg/kg IV, at 4 hours after onset of ischemia, 72 h after stroke"}},
  "data": [
    {"molecule": "tPA: Recombinant human tPA (Alteplase); tissue plasminogen activator, thrombolytic approved by the FDA for the treatment of stroke (protein, UniProt P00750 36-562, looked up) Tissue-type plasminogen …: SYQVICRDEKTQMIYQQHQSWLRPVLRSNRVEYCWCNSGRAQCHSVPVKSCSEPRCFNGGTCQQALYFSDFVCQCPEGFAGKCCEIDTRATCYEDQGISYRGTWSTAESGAECTNWNSSALAQKPYSGRRPDAIRLGLGNHNYCRNPDRDSKPWCYVFKAGKYSSEFCSTPACSEGNSDCYFGNGSAYRGTHSLTESGASCLPWNSMILIGKVYTAQNPSAQALGLGKHNYCRNPDGDAKPWCHVLKNRRLTWEYCDVPSCSTCGLRQYSQPQFRIKGGLFADIASHPWQAAIFAKHRRSPGERFLCGGILISSCWILSAAHCFQERFPPHHLTVILGRTYRVVPGEEEQKFEVEKYIVHKEFDDDTYDNDIALLQLKSDSSRCAQESSVVRTVCLPPADLQLPDWTECELSGYGKHEALSPFYSERLKEAHVRLYPSSRCTSQHLLNRTVTDNMLCAGDTRSGGPQANLHDACQGDSGGPLVCLNDGRMTLVGIISWGLGCGQKDVPGVYTKVTNYLDWIRDNMRP", "values": [
      {"measurement": "brain hemorrhage / hemorrhagic transformation", "setting": "[1]", "result": "worsened"},
      {"measurement": "brain infarction / infarct volume", "setting": "[1]", "result": "did not decrease"},
      {"measurement": "mortality rate", "setting": "treatment at 4 h after onset of ischemia, log-rank test *p < 0.05 vs Saline or tPA alone group", "result": 32, "unit": "%"},
      {"measurement": "Death (number of rats)", "setting": "treatment at 4 h after onset of ischemia, tPA n = 22, J147 plus tPA n = 17", "result": 7}
    ]}
  ]
}
